Results as given in PMC11970842.

Biological target: recombinant trypanothione reductase from Leishmania braziliensis (Leishmania braziliensis) (UniProt A4H480)

crotapotin from Crotalus durissus terrificus venom (natural protein)
IC50 of inhibition of LbTR enzymatic activity (reduction of T[S]2, DTNB-coupled, absorbance at 412 nm; 0.04 µM enzyme, crotapotin 0, 100, 150 and 200 µM, 28 °C, pH 7.5): 224 μM
